Experimental data from patent US20260317448 (published 2026).

T1: germ cell alkaline phosphatase (human, UniProt P10696)
T1 chain: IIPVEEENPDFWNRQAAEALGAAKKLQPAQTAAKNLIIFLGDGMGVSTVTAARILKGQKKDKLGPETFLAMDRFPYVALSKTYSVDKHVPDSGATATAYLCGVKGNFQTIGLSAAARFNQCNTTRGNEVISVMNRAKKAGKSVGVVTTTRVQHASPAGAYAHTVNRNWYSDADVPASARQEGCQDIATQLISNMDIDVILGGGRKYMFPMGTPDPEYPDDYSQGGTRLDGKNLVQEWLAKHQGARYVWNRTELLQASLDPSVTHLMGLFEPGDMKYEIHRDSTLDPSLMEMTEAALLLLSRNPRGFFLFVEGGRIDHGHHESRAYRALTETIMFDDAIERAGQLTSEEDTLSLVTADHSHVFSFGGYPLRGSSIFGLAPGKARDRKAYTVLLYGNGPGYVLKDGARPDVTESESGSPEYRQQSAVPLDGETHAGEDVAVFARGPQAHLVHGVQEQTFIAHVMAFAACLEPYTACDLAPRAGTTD

T2: placental alkaline phosphatase (human, UniProt P05187)
T2 chain: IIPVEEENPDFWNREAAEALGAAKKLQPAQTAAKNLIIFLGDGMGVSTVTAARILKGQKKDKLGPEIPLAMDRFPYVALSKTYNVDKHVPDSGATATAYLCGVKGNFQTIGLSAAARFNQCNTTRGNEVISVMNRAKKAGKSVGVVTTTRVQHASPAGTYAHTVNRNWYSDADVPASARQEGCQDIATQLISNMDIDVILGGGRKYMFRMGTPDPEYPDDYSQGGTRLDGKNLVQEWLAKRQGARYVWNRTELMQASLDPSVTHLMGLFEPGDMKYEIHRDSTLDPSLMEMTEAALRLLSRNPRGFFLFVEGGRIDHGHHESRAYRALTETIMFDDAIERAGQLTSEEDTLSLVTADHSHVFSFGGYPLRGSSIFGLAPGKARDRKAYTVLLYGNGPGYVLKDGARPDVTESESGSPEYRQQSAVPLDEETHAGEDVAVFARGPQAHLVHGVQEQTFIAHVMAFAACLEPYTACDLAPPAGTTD

T3: 2-hsALPI peptide (human, intestinal alkaline phosphatase aa234-250)
T3 chain: PEYPADASQNGIRLDGK

T4: tissue-nonspecific alkaline phosphatase (human, UniProt P05186)
T4 chain: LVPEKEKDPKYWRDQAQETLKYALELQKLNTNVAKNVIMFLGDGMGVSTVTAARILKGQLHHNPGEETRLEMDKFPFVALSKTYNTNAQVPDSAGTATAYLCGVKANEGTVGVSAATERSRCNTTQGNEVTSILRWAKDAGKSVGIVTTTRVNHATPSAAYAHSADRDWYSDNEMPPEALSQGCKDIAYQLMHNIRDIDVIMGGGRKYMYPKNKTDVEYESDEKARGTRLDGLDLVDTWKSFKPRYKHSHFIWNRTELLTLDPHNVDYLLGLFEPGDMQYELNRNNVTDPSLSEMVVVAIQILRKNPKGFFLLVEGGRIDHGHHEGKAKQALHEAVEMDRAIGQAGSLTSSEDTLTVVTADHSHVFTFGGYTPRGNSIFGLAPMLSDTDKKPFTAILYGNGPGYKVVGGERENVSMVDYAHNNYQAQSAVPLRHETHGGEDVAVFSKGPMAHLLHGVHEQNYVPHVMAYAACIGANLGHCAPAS

T5: 6-hsALPI peptide (human, intestinal alkaline phosphatase aa416-438)
T5 chain: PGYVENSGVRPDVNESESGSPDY


Columns and labels:
[1] = biological target: T1, germ cell alkaline phosphatase; assay: other, western blot
[2] = biological target: T2, placental alkaline phosphatase; assay: other, western blot
2-hsALPI peptide = biological target: T3, 2-hsALPI peptide; assay: ELISA
[3] = biological target: T4, tissue-nonspecific alkaline phosphatase; assay: other, western blot
6-hsALPI peptide = biological target: T5, 6-hsALPI peptide; assay: ELISA

binding result [1] | binding result [2] | Kd (2-hsALPI peptide) [nM] | binding result [3] | Kd (6-hsALPI peptide) [nM] | Binder
no binding | no binding | 0.00711 | no binding |  | CDI005E8 (antibody, V domains shown) VH: CQSLEESGGGLVQPGASLTLTCTASGFSFTNNYWIYWVRQAPGKGLEWIGSVIISSSSAYYASWAKGRFTITKPSSTTVTLQVTSLTAADTATYFCVTGGILWGPGTLVTVSS VL: MDTRAPTQLLGLLLLWLPGARCDVVMTQTPASVEAAVGGTVTIKCQASQSIGTALAWYQQKPGQPPKRLIYKASTLTSGVPSRFKGSGSGTDFTLTISDLECADAATYYCQCTVDDSSSGSSYGNAFGGGTEVVVRG
 |  | 0.021 |  | 0.2 | CDI022E3 (antibody, V domains shown) VH: CQSLEESGGRLVTPGTPLTLTCTVSGIDLSTYAMGWVRQAPGEGLEWIGTIGVSGSTYYASWAKGRFTISKTSTTVDLKMTSPATEDTATYFCARGSVWGPGTLVTVSL VL: AQVLTQTPASVEAAVGGTVTIKCQASQSISTWLAWYQQKPGQAPKRLIYSASTLASGVSSRFKGSGSGTEFTLTISDLECADAATYYCRCSYGKSYGEAFGGGTEVVVKG
